Key:
[1] = target: T1, c-Met-Fc (Homo sapiens, UniProt P08581); experiment: Displacement of [125I]-HGF binding to immobilized c-Met; details: 0.1 pM to 1 μM
T1 construct: c-Met extracellular domain fusion protein (10-15 g/dose/mouse) (R&D Systems, Catalog #358MT); purchased R&D Systems
Procedure: To determine whether the anti-c-Met antibodies were able to displace HGF, binding experiments were set up. Briefly, protein A FlashPlate 96-well microplates (Perkin Elmer) were saturated with 0.5% gelatine in PBS (200 μl/well, 2 h at room temperature) before adding recombinant c-Met-Fc (R&D Systems) as a coating protein. […] of a 1 μg/ml c-Met-Fc solution in PBS were added to each well. Plates were then incubated overnight at 4° C. Free residual Protein A sites were further saturated with a non relevant hIgG (0.5 μg/well in PBS) for 2 h at room temperature. Plates were washed with PBS after each step.
For competition assays, binding of [^125I]-HGF (specific activity ˜2,000 Ci/mmol) at 200 pM to immobilized c-Met was measured in the presence of varying concentrations of the anti-c-Met monoclonal antibodies 11E1, 224G11, 223C4, 227H1 or HGF (R&D Systems) ranging from 0.1 pM to 1 μM in PBS pH 7.4. The plates were incubated at room temperature for 6 h, then counted on a Packard Top Count Microplate Scintillation Counter. Non specific binding was determined in the presence of […] of HGF. The monoclonal antibody 9G4, which is not directed at c-Met but specifically recognizes an E. coli protein, was used as mouse IgG1 isotype control.
Percent of total specific [^125I]-HGF binding was plotted as a function of ligand concentration on semilog graphs. […]

[2] = tested on: G55; details: glioblastoma growing independently of HGF; cited from earlier work

T1 sequence (P08581 25-932 limits assumed): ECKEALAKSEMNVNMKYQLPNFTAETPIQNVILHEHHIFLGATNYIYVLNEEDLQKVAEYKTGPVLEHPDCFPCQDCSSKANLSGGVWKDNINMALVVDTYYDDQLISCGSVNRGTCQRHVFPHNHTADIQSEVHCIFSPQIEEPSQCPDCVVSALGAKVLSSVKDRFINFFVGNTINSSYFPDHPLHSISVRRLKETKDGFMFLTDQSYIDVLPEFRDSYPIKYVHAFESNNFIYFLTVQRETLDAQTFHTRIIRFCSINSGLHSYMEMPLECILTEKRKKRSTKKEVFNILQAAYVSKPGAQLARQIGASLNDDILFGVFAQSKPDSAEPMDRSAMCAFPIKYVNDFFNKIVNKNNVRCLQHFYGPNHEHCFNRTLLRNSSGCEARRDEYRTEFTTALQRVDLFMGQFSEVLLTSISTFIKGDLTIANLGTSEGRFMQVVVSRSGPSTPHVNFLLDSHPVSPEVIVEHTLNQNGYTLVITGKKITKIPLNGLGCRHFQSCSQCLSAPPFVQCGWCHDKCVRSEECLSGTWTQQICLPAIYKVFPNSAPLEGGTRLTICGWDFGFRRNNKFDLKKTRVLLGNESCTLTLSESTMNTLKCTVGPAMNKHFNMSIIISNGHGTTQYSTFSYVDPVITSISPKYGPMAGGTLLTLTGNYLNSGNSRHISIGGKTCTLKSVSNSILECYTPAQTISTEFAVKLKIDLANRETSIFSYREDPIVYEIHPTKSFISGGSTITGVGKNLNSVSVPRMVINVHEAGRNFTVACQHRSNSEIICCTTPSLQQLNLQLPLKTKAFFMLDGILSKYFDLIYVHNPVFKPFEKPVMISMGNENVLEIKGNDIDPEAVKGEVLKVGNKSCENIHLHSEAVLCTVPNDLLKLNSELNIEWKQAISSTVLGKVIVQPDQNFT

Molecule	displacement of [125I]-HGF binding to immobilized c-Met [1]	effect on G55 tumor growth [2]
HGF: hepatocyte growth factor (R&D Systems), c-Met ligand used as unlabeled competitor	fully displace	–
OA5D5: monovalent engineered form of 5D5 produced as a recombinant protein in E. Coli (Genentech) (antibody, chains of the INN, looked up, V domains shown, one-armed monovalent antibody) VH: EVQLVESGGGLVQPGGSLRLSCAASGYTFTSYWLHWVRQAPGKGLEWVGMIDPSNSDTRFNPNFKDRFTISADTSKNTAYLQMNSLRAEDTAVYYCATYRSYVTPLDYWGQGTLVTVSS VL: DIQMTQSPSSLSASVGDRVTITCKSSQSLLYTSSQKNYLAWYQQKPGKAPKLLIYWASTRESGVPSRFSGSGSGTDFTLTISSLQPEDFATYYCQQYYAYPWTFGQGTKVEIK	–	no significant effect
